Measured values published in US20110143963A1 (UNIVERSITY OF CHICAGO, published 2011).
Where no end group is shown, it is not given here.

Tests used:
[1] = biological target: T1, SUMO-ARVCF fusion protein (yeast); test: SPR, ratio of Kd
T1 construct: also called target peptide fused to the yeast SUMO protein; the target

[2] = biological target: T1, SUMO-ARVCF fusion protein; test: SPR, equilibrium mode, target peptide fused to yeast SUMO
[3] = biological target: T2, target motif GGRSWFETWV-COOH; test: phage display format and SPR
T2 construct: also called target peptide
T2 peptide: GGRSWFETWV-OH
Method: From visual inspection of the erbin PDZ structure and a sequence alignment of PDZ domains, three potential sites were identified for the new termini in a circularly permutated PDZ domain. Three mutant PDZ domains, in which four Gly residues were inserted in one of the three candidate sites, were assayed for binding to the target motif using the phage display format.

[4] = biological target: T3, ARVCF peptide PQPVDSWV-COOH (eight-residue motif corresponding to the ARVCF C-terminus) (not fully specified; printed as PQPVDSWV-COOH); test: SPR (BIAcore)
T3 construct: also called ARVCF target peptide; AVFCF peptide
T3 peptide: PQPVDSWV-OH

[5] = biological target: T3, ARVCF peptide PQPVDSWV-COOH …; test: SPR, ratio of Kd
[6] = biological target: T3, ARVCF peptide PQPVDSWV-COOH …; test: SPR (error 13500 stands in r16c7)

B1: peptide-PDZ affinity clamp, clone 282-6 (designed binder)
chain: GSNFCASNGTGNDCRRPELGFSISGGVGGRGNPFRPDDDGIFVTRVQPEGPASKLLQPGDKIIQANGYSFINIEHGQAVSLLKTFQNTVELIIVREVGNGAKQEIRVRVEKDGG
modifications: disulfide-constrained (Cys-constrained) peptide segment
[1]
  fold higher affinity than the parent interaction domain (cpPDZ): 12 fold
[2]
  Kd: 0.91 µM

B2: circularly permutated PDZ domain (designed binder)
chain: PELGFSISGGVGGRGNPFRPDDDGIFVTRVQPEGPASKLLQPGDKIIQANGYSFINIEHGQAVSLLKTFQNTVELIIVREVGNGAKQEIRVRVEKD
notes: The order would be PDZ residues 21 to C-terminus, Asn-Gly, then residues 1-20; also called cpPDZ
[3]
  binding result: binds

B3: fusion protein of cpPDZ and FN3 (starting material) (designed binder)
chain: PELGFSISGGVGGRGNPFRPDDDGIFVTRVQPEGPASKLLQPGDKIIQANGYSFINIEHGQAVSLLKTFQNTVELIIVREVGNGAKQEIRVRVEKDGGSGGVSSVPTNLEVVAATPTSLLISWDASSSSVSYYRITYGETGGNSPVQEFTVPGSKSTATISGLKPGVDYTITVYASSSSSSSSSSPISINYRT
[4]
  Kd: 25 µM
[5]
  Affinity Enhancement (Kd of cpPDZFN for ARVCF / Kd of the clamp): 1 fold
[6]
  Kd: 24.8 µM
